B1: CD5 antigen-like (other)
chain: SPSGVRLVGGLHRCEGRVEVEQKGQWGTVCDDGWDIKDVAVLCRELGCGAASGTPSGILYEPPAEKEQKVLIQSVSCTGTEDTLAQCEQEEVYDCSHDEDAGASCENPESSFSPVPEGVRLADGPGHCKGRVEVKHQNQWYTVCQTGWSLRAAKVVCRQLGCGRAVLTQKRCNKHAYGRKPIWLSQMSCSGREATLQDCPSGPWGKNTCNHDEDTWVECEDPFDLRLVGGDNLCSGRLEVLHKGVWGSVCDDNWGEKEDQVVCKQLGCGKSLSPSFRDRKCYGPGVGRIWLDNVRCSGEEQSLEQCQHRFWGFHDCTHQEDVAVICSG
notes: also called CD5L
B2: C4b-binding protein alpha chain (other)
chain: NCGPPPTLSFAAPMDITLTETRFKTGTTLKYTCLPGYVRSHSTQTLTCNSDGEWVYNTFCIYKRCRHPGELRNGQVEIKTDLSFGSQIEFSCSEGFFLIGSTTSRCEVQDRGVGWSHPLPQCEIVKCKPPPDIRNGRHSGEENFYAYGFSVTYSCDPRFSLLGHASISCTVENETIGVWRPSPPTCEKITCRKPDVSHGEMVSGFGPIYNYKDTIVFKCQKGFVLRGSSVIHCDADSKWNPSPPACEPNSCINLPDIPHASWETYPRPTKEDVYVVGTVLRYRCHPGYKPTTDEPTTVICQKNLRWTPYQGCEALCCPEPKLNNGEITQHRKSRPANHCVYFYGDEISFSCHETSRFSAICQGDGTWSPRTPSCGDICNFPPKIAHGHYKQSSSYSFFKEEIIYECDKGYILVGQAKLSCSYSHWSAPAPQCKALCRKPELVNGRLSVDKDQYVEPENVTIQCDSGYGVVGPQSITCSGNRTWYPEVPKCEWETPEGCEQVLTGKRLMQCLPNPEDVKMALEVYKLSLEIEQLELQRDSARQSTLDKEL
notes: also called C4BPA
B3: Hemopexin (other)
chain: TPLPPTSAHGNVAEGETKPDPDVTERCSDGWSFDATTLDDNGTMLFFKGEFVWKSHKWDRELISERWKNFPSPVDAAFRQGHNSVFLIKGDKVWVYPPEKKEKGYPKLLQDEFPGIPSPLDAAVECHRGECQAEGVLFFQGDREWFWDLATGTMKERSWPAVGNCSSALRWLGRYYCFQGNQFLRFDPVRGEVPPRYPRDVRDYFMPCPGRGHGHRNGTGHGNSTHHGPEYMRCSPHLVLSALTSDNHGATYAFSGTHYWRLDTSRDGWHSWPIAHQWPQGPSAVDAAFSWEEKLYLVQGTQVYVFLTKGGYTLVSGYPKRLEKEVGTPHGIILDSVDAAFICPGSSRLHIMAGRRLWWLDLKSGAQATWTELPWPHEKVDGALCMEKSLGPNSCSANGPGLYLIHGPNLYCYSDVEKLNAAKALPQPQNVTSLLGCTH
notes: also called HPX
B4: Protein fem-1 homolog A (other)
chain: MDLRTAVYNAARDGKLQLLQKLLSGRSREELDELTGEVAGGGTPLLIAARYGHLDVVEYLVDRCGASVEAGGSVHFDGETIEGAPPLWAASAAGHLDVVRSLLRRGASVNRTTRTNSTPLRAACFDGHLEVVRYLVGEHQADLEVANRHGHTCLMISCYKGHREIARYLLEQGAQVNRRSAKGNTALHDCAESGSLEILQLLLGCKARMERDGYGMTPLLAASVTGHTNIVEYLIQEQPGQEQVAGGEAQPGLPQEDPSTSQGCAQPQGAPCCSSSPEEPLNGESYESCCPTSREAAVEALELLGATYVDKKRDLLGALKHWRRAMELRHQGGEYLPKPEPPQLVLAYDYSREVNTTEELEALITDPDEMRMQALLIRERILGPSHPDTSYYIRYRGAVYADSGNFERCIRLWKYALDMQQSNLEPLSPMTASSFLSFAELFSYVLQDRAAKGSLGTQIGFADLMGVLTKGVREVERALQLPREPGDSAQFTKALAIILHLLYLLEKVECTPSQEHLKHQTVYRLLKCAPRGKNGFTPLHMAVDKDTTNVGRYPVGRFPSLHVVKVLLDCGADPDSRDFDNNTPLHIAAQNNCPAIMNALIEAGAHMDATNAFKKTAYELLDEKLLARGTMQPFNYVTLQCLAARALDKNKIPYKGFIPEDLEAFIELH
notes: also called FEM1A
B5: Glutathione peroxidase 3 (enzyme)
chain: QSRGQEKSKMDCHGGISGTIYEYGALTIDGEEYIPFKQYAGKYVLFVNVASYUGLTGQYIELNALQEELAPFGLVILGFPCNQFGKQEPGENSEILPTLKYVRPGGGFVPNFQLFEKGDVNGEKEQKFYTFLKNSCPPTSELLGTSDRLFWEPMKVHDIRWNFEKFLVGPDGIPIMRWHHRTTVSNVKMDILSYMRRQAALGVKRK
notes: also called GPX3
B6: Beta-2-glycoprotein 1 (other)
chain: GRTCPKPDDLPFSTVVPLKTFYEPGEEITYSCKPGYVSRGGMRKFICPLTGLWPINTLKCTPRVCPFAGILENGAVRYTTFEYPNTISFSCNTGFYLNGADSAKCTEEGKWSPELPVCAPIICPPPSIPTFATLRVYKPSAGNNSLYRDTAVFECLPQHAMFGNDTITCTTHGNWTKLPECREVKCPFPSRPDNGFVNYPAKPTLYYKDKATFGCHDGYSLDGPEEIECTKLGNWSAMPSCKASCKVPVKKATVVYQGERVKIQEKFKNGMLHGDKVSFFCKNKEKKCSYTEDAQCIDGTIEVPKCFKEHSSLAFWKTDASDVKPC
notes: also called APOH
B7: Kininogen-1 (other)
chain: QESQSEEIDCNDKDLFKAVDAALKKYNSQNQSNNQFVLYRITEATKTVGSDTFYSFKYEIKEGDCPVQSGKTWQDCEYKDAAKAATGECTATVGKRSSTKFSVATQTCQITPAEGPVVTAQYDCLGCVHPISTQSPDLEPILRHGIQYFNNNTQHSSLFMLNEVKRAQRQVVAGLNFRITYSIVQTNCSKENFLFLTPDCKSLWNGDTGECTDNAYIDIQLRIASFSQNCDIYPGKDFVQPPTKICVGCPRDIPTNSPELEETLTHTITKLNAENNATFYFKIDNVKKARVQVVAGKKYFIDFVARETTCSKESNEELTESCETKKLGQSLDCNAEVYVVPWEKKIYPTVNCQPLGMISLMKRPPGFSPFRSSRIGEIKEETTVSPPHTSMAPAQDEERDSGKEQGHTRRHDWGHEKQRKHNLGHGHKHERDQGHGHQRGHGLGHGHEQQHGLGHGHKFKLDDDLEHQGGHVLDHGHKHKHGHGHGKHKNKGKKNGKHNGWKTEHLASSSEDSTTPSAQTQEKTEGPTPIPSLAKPGVTVTFSDFQDSDLIATMMPPISPAPIQSDDDWIPDIQIDPNGLSFNPISDFPDTTSPKCPGRPWKSVSEINPTTQMKESYYFDLTDGLS
notes: also called KNG1
B8: Apolipoprotein C-I (other)
chain: TPDVSSALDKLKEFGNTLEDKARELISRIKQSELSAKMREWFSETFQKVKEKLKIDS
notes: also called APOC1
B9: Ig gamma-3 chain C region (other)
chain: ASTKGPSVFPLAPCSRSTSGGTAALGCLVKDYFPEPVTVSWNSGALTSGVHTFPAVLQSSGLYSLSSVVTVPSSSLGTQTYTCNVNHKPSNTKVDKRVELKTPLGDTTHTCPRCPEPKSCDTPPPCPRCPEPKSCDTPPPCPRCPEPKSCDTPPPCPRCPAPELLGGPSVFLFPPKPKDTLMISRTPEVTCVVVDVSHEDPEVQFKWYVDGVEVHNAKTKPREEQYNSTFRVVSVLTVLHQDWLNGKEYKCKVSNKALPAPIEKTISKTKGQPREPQVYTLPPSREEMTKNQVSLTCLVKGFYPSDIAVEWESSGQPENNYNTTPPMLDSDGSFFLYSKLTVDKSRWQQGNIFSCSVMHEALHNRFTQKSLSLSPGK
notes: also called IGHG3
B10: Ig gamma-2 chain C region (other)
chain: ASTKGPSVFPLAPCSRSTSESTAALGCLVKDYFPEPVTVSWNSGALTSGVHTFPAVLQSSGLYSLSSVVTVPSSNFGTQTYTCNVDHKPSNTKVDKTVERKCCVECPPCPAPPVAGPSVFLFPPKPKDTLMISRTPEVTCVVVDVSHEDPEVQFNWYVDGVEVHNAKTKPREEQFNSTFRVVSVLTVVHQDWLNGKEYKCKVSNKGLPAPIEKTISKTKGQPREPQVYTLPPSREEMTKNQVSLTCLVKGFYPSDISVEWESNGQPENNYKTTPPMLDSDGSFFLYSKLTVDKSRWQQGNVFSCSVMHEALHNHYTQKSLSLSPGK
notes: also called IGHG2
B11: Isoform 2 of Haptoglobin-related protein (other)
chain: MHVCVCVCVCVYMPVCVDACMCCEAGRPAFRSFLFSLCSDLGAVISLLLWGRQLFALYSGNDVTDISDDRFPKPPEIANGYVEHLFRYQCKNYYRLRTEGDGVYTLNDKKQWINKAVGDKLPECEAVCGKPKNPANPVQRILGGHLDAKGSFPWQAKMVSHHNLTTGATLINEQWLLTTAKNLFLNHSENATAKDIAPTLTLYVGKKQLVEIEKVVLHPNYHQVDIGLIKLKQKVLVNERVMPICLPSKNYAEVGRVGYVSGWGQSDNFKLTDHLKYVMLPVADQYDCITHYEGSTCPKWKAPKSPVGVQPILNEHTFCVGMSKYQEDTCYGDAGSAFAVHDLEEDTWYAAGILSFDKSCAVAEYGVYVKVTSIQHWVQKTIAEN
notes: also called HPR
B12: Isoform 2 of Ig mu chain C region (other)
chain: GSASAPTLFPLVSCENSPSDTSSVAVGCLAQDFLPDSITFSWKYKNNSDISSTRGFPSVLRGGKYAATSQVLLPSKDVMQGTDEHVVCKVQHPNGNKEKNVPLPVIAELPPKVSVFVPPRDGFFGNPRKSKLICQATGFSPRQIQVSWLREGKQVGSGVTTDQVQAEAKESGPTTYKVTSTLTIKESDWLGQSMFTCRVDHRGLTFQQNASSMCVPDQDTAIRVFAIPPSFASIFLTKSTKLTCLVTDLTTYDSVTISWTRQNGEAVKTHTNISESHPNATFSAVGEASICEDDWNSGERFTCTVTHTDLPSPLKQTISRPKGVALHRPDVYLLPPAREQLNLRESATITCLVTGFSPADVFVQWMQRGQPLSPEKYVTSAPMPEPQAPGRYFAHSILTVSEEEWNTGETYTCVVAHEALPNRVTERTVDKSTEGEVSADEEGFENLWATASTFIVLFLLSLFYSTTVTLFKVK
notes: also called IGHM

The binders below were run against T1, Adeno-associated virus 8 (AAV8) virion (adeno-associated virus 8) (assay: co-IP/LC-MS/MS, AAV8 + human serum vs PBS control).
T1 construct: Intact virion with packaged vector genome; capsid of 60 subunits (VP1, VP2, VP3, overlapping products of one cap gene); also called AAV8/luc; AAV8 capsid

Binder	fold change
B1	1.23 fold
B2	1.53 fold
B3	30.7 fold
B4	0.264 fold
B5	2.74 fold
B6	3.43 fold
B7	0.419 fold
B8	2 fold
B9	6.33 fold
B10	5.06 fold
B11	2.82 fold
B12	3 fold

These binders were tested against T2, Adeno-associated virus 9 (AAV9) virion (adeno-associated virus 9) (assay: co-IP with ADK9/LC-MS/MS, AAV9 + human serum vs control).
T2 construct: Intact virion; capsid of VP1, VP2, VP3; also called AAV9/luc; AAV9 capsid

Binder	fold change
B1	1.23 fold
B2	1.53 fold
B3	30.7 fold
B4	0.264 fold
B5	2.74 fold
B6	3.43 fold
B7	0.419 fold
B8	2 fold
B9	6.33 fold
B10	5.06 fold
B11	2.82 fold
B12	3 fold
